Experimental data: US20190248902A1 (published 2019)
Substitutions are numbered along the chain they refer to.

B1: 32D6 (antibody, V domains shown)
VH: QVQLVESGGGVVQPGRSLRLSCAASGFTFSSYGMHWVRQAPGKGLEWVTVIWHDGSNAYYADSVKGRFTISRDNSKNTLYLQMNSLRAEDTAVYYCARENSSSYYFDYWGQGTLVTVSS
VL: DIQMTQSPSSLSTSVGDRVTITCRASQNIISYLNWYQQKPGKAPKLLMYVASRLQSGVPSRFSGSGSGTDFTLTISSLQAEDFATYYCQQSYSTPYTFGGGTKVAIK
notes: mAb
B2: 60E8 (antibody, V domains shown)
VH: QVQLQESGPGLVRPSATLSLTCTVSGGSISRSSYYWGWIRQPPGKGLEWIGSIYYSGSASYNPSLKSRVTISVDTSENQFSLRLSSVTAADTAVYYCARLDSGWSFDYWGQGTLVTVSS
VL: DIQMTQSPSSLSASVGDRVTFTCRASQGIRNDLGWFQQKPGKAPKRLIYAASSLQSGVPSRFSGSGSGTEFTLTISSLQPEDFATYYCLQHSSYPLTFGGGTKVEIK
notes: mAb
B3: 10G6 (antibody, V domains shown)
VH: QVQLVQSGAEVKKPGASVKVSCKASGYTFTAYHMHWVRQAPGQGLEWMGWINPNNNGTNYAQKFQGRVTMTRDTSISTAYMELSRLRSDDTAVYYCGRDVTSSFDYWGQGTLVTVSS
VL: DIQMTQSPSSVSASVGDRVTITCRASQGISKWLAWYQQKPGKAPKILIYAAYSLQSGVPARFSGSGSGTDFTLTIRSLQPEDFATYYCQQANSFPFTFGPGTKVDIK
notes: mAb
B4: 53F7 (antibody, V domains shown)
VH: B3 VH with A31G, S84N, R87T, G97A, V100G
VL: B3 VL with T5S, K31R, K45N, I46L, Y52S, A60S, R76S, T85I
notes: mAb
B5: 6G6 (antibody, V domains shown)
VH: QVQLVQSGAEVRKPGASVKVSCKASGYTFTNYDINWVRQATGQGPEWMGWMHPNSGNTGYAKKFQGRVTMTRNTSISAAYMVLSSLRSEDTAVYYCALSSGWYYFDYWGQGTLVTVSS
VL: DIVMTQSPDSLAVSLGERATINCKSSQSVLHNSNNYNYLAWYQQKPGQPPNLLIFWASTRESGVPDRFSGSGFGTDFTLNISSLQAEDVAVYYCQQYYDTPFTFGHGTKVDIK
notes: mAb
B6: 4B3 (antibody, V domains shown)
VH: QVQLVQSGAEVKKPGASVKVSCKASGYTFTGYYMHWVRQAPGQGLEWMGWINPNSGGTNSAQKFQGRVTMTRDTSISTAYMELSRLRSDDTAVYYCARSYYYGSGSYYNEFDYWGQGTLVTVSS
VL: SYELTQPPSVSVSPRQTVSITCSGDKLGDKYACWYQQKPGQSPVLVIYQDRKRPSGIPERFSGSNSGNTATLTISGTQAMDEADYYCQAWDNNTVIFGGGTKLTVL
notes: mAb
B7: 60D2 (antibody, V domains shown)
VH: EVQLVESGGGLVQPGGSLRLSCGASGFTFSSYSMNWVRQAPGKGLEWVSYISESSNIIYYTDSVKGRFTISRDNAMNSLYLQMNSLRDEDTAVYYCARADTPMVLYFYGMDVWGQGTTVTVSS
VL: B6 VL with R15G, V18A, D25N, C33S, K38R, R51N, A79T, I96V
notes: mAb
B8: 65E9 (antibody, V domains shown)
VH: not shown
VL: B6 VL with R15G, V18A, D29N, A32D, C33Y, N93S, I96V
notes: mAb
B9: 59F2 (antibody, V domains shown)
VH: B7 VH with E53G, M76K
VL: B6 VL with R15G, V18A, C33S, K38R, R51N, I96V
notes: mAb
B10: 50G9 (antibody, V domains shown)
VH: QVQLVESGGGVVQPGRSLRLSCAASGFIFSSYGMHWVRQAPGKGLEWVAVISQDGIIRYYADSVKGRFTISRDNSKNTLYLQMNSLRAEDTAVYYCARDVKQWLVRTYGMDVWGQGTTVTVSS
VL: SYELTQPPSVSVSPGQTASITCSGDKLGDKYACWYQQKPGQSPVLVIYQDSKRPSGIPERFSGSNSGNTATLTISGTQARDEAEYYCQARNSRRGVFGGGTRLTVL
notes: mAb
B11: 29E2 (antibody, V domains shown)
VH: QVQLVESGGGVVQPGRSLRLSCAASGFTFSNCVMHWVRQAPGKGLEWVAVIWYDGSNKYYADSVKGRITISRDNSKNTLYLQMNSLRAEDTAVYYCAREEYSSGWYDYGMDVWGQGTTVTVSS
VL: DIQMTQSPSSLSASVGDRVTITCRASQAIRNDLGWYQQRPGKAPKRLIYAASSLQSGVPSRFSGSGSGTEFILTISSLQPEDFATYYCLQHYNYPRSFGQGTKLEIK
notes: mAb
B12: 45B4 (antibody, V domains shown)
VH: B11 VH with N31D, I68F, E100R, W105L
VL: B2 VL with N31D, F36Y, S92Y, L96R, G100Q
notes: mAb

How the values were obtained:
human ASGR-1 (wild type) [1] = target: T1, human ASGR-1 (wild type) (human, UniProt P07306 1-291); assay: FACS, transfected CHO-S cells, mAb 5 ug/ml
T1 construct: also called wt ASGR1; huASGR-1
T1 sequence: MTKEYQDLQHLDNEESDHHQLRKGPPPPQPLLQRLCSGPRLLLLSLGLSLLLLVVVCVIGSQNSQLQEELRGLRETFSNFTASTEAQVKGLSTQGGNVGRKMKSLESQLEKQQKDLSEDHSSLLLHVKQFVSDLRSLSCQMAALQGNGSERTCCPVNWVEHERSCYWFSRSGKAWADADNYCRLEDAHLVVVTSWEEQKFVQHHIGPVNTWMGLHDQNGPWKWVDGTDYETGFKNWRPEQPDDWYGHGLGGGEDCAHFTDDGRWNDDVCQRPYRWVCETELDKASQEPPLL
Procedure: (§1) The ability of human ASGR-1-specific, ligand competing antibodies to bind to the mutant hASGR-1 proteins was assessed by FACS as described above.
(§2) Antibodies were tested for binding to the individual mutant and wild type ASGR-1 constructs using normalized antibody concentrations (5 ug/ml). CHO—S cells transiently expressing the appropriate mutated or non-mutated antigen of interest were mixed with antibody sample or controls, incubated for 1 hour at 4° C., and then washed twice. Cells with bound antibody were then incubated with Alexa Fluor® 647 IgG Fc fragment-specific detection antibody and 7-AAD viability stain for 15 minutes at 4° C., washed once and resuspended in FACS buffer. Samples were analyzed using a BD Accuri™ Flow Cytometer and an Intellicyt HyperCyt Autosampler. As a negative control, supernatants and controls were also screened against CHO—S cells transfected with empty parental vector (referred to as mock). […] Because mutant hASGR-1 expression levels varied relative to each other, sample binding data for each construct was normalized for expression by dividing the binding data from an antibody not affected by the mutations (e.g., 65C12) by the binding values of each test antibody on a given mutant construct. Also, because the antibody binding affinities varied amongst the samples, the expression corrected data (above) was further normalized by comparing test antibody binding on each mutant construct to wild type hASGR-1. Identification of specific mutations that affected test antibody binding was performed by an interquartile range (IQR) analysis to determine statistical outliers. A mutation was identified as a “hit” if the calculated values were >3× the IQR (above the 3rd quartile/upper fence) for a given mutant construct. Although IQR analysis was used here to determine signifance and identify hits, one skilled in the art will recognize that a number of methods could be employed in order to normalize the data (eg. using epitope-tagged constructs or other ASGR-1-binding antibodies directed against non-CBD epitopes).

[2] = target: T2, human ASGR-1 mutant construct H203 (human, UniProt P07306 1-291); assay: FACS, transfected CHO-S cells, mAb 5 ug/ml
T2 construct: Arg/Glu scanning: non-arginine residues were changed to arginine; Transiently expressed on CHO-S cells
T2 sequence: T1 sequence with H203R
Procedure: as §1, §2

human ASGR-1 (wild type) [3] = target: T1, human ASGR-1 (wild type); assay: FACS ratio: 65C12 geomean / this mAb geomean
Procedure: (§3) Mutant hASGR-1 variants were constructed such that non-arginine residues were changed to arginine and where wild type arginine residues were mutated to glutamic acid. Each mutant hASGR-1 sequence was then cloned into a mammalian expression vector and used to transiently transfect CHOs cells. The ability of human ASGR-1-specific, ligand competing antibodies to bind to the mutant hASGR-1 proteins was assessed by FACS as described above.
(§4) Antibodies were tested for binding to the individual mutant and wild type ASGR-1 constructs using normalized antibody concentrations (5 ug/ml). CHO—S cells transiently expressing the appropriate mutated or non-mutated antigen of interest were mixed with antibody sample or controls, incubated for 1 hour at 4° C., and then washed twice. Cells with bound antibody were then incubated with Alexa Fluor® 647 IgG Fc fragment-specific detection antibody and 7-AAD viability stain for 15 minutes at 4° C., washed once and resuspended in FACS buffer. Samples were analyzed using a BD Accuri™ Flow Cytometer and an Intellicyt HyperCyt Autosampler. As a negative control, supernatants and controls were also screened against CHO—S cells transfected with empty parental vector (referred to as mock). […] Because mutant hASGR-1 expression levels varied relative to each other, sample binding data for each construct was normalized for expression by dividing the binding data from an antibody not affected by the mutations (e.g., 65C12) by the binding values of each test antibody on a given mutant construct. Also, because the antibody binding affinities varied amongst the samples, the expression corrected data (above) was further normalized by comparing test antibody binding on each mutant construct to wild type hASGR-1. Identification of specific mutations that affected test antibody binding was performed by an interquartile range (IQR) analysis to determine statistical outliers. A mutation was identified as a “hit” if the calculated values were >3× the IQR (above the 3rd quartile/upper fence) for a given mutant construct.

[4] = target: T2, human ASGR-1 mutant construct H203; assay: FACS ratio: 65C12 geomean / this mAb geomean
Procedure: as §3, §4

[5] = target: T2, human ASGR-1 mutant construct H203; assay: FACS ratio: H203 normalized value / wt normalized value
Procedure: as §1, §2

Row | Binder | FACS Binding Geomean (human ASGR-1 (wild type) [1]) | FACS Binding Geomean [2] | Expression Normalization to mAb 65C12 (human ASGR-1 (wild type) [3]) | Expression Normalization to mAb 65C12 [4] | Normalization to wt ASGR1 Binding [5]
1 | B1 | 36100 | 13500 | 1.55 | 1.91 | 1.23
2 | B2 | 38700 | 1520 | 1.45 | 17 | 11.7
3 | B3 | 43100 | 18200 | 1.3 | 1.41 | 1.09
4 | B4 | 43500 | 18100 | 1.29 | 1.42 | 1.1
5 | B5 | 47600 | 20500 | 1.18 | 1.26 | 1.07
6 | B6 | 35600 | 1700 | 1.58 | 15.2 | 9.63
7 | B7 | 29600 | 1370 | 1.89 | 18.8 | 9.95
8 | B8 | 29600 | 1470 | 1.89 | 17.5 | 9.25
9 | B9 | 27900 | 1350 | 2.01 | 19.1 | 9.53
10 | B10 | 37300 | 1510 | 1.5 | 17.1 | 11.4
11 | B11 | 25800 | 15100 | 2.18 | 1.71 | 0.786
12 | B12 | 30400 | 14000 | 1.85 | 1.84 | 0.995
